In patent publication US11732048B2, “Anti-axl antagonistic antibodies” (BERGEN TEKNOLOGIOVERFØRING AS, priority 2016, dated 2023):
“Also recorded” adds a separate entry of the source.

B1: murine 10G5: mouse monoclonal anti-human Axl antibody from hybridoma WR-10G5-E5; VH SEQ ID NO: 28, VL SEQ ID NO: 29 (antibody, listed as Mus musculus, V domains shown)
VH: QVQLQQSGAELVRPGASVKLSCKASGYSFTDFYINWVRQRPGQGLEWIARIFPGGDNTYYNEKFKGKATLTAEESSSTAYIQLSSLTSEDSAVYFCARRGLYYAMDYWGQGISVTVSS
VL: DVLMTQTPLSLPVSLGDQASISCRSSQSLVHSNGIPYLHWYLQKPGQSPKLLIYRVSNRFSGVPDRFSGSGSGTDFTLKISRVEAEDLGVYFCSQGTHVPPTFGGGTKLEIK
modifications: (1)..(118) Mus musculus 10G5 VH domain; (1)..(112) Mus musculus 10G5 VL domain
B2: c10G5: chimeric (mouse variable/human constant) IgG1 antibody with the 10G5 VH and VL (antibody, V domains shown)
VH: B1 VH
VL: B1 VL

Assays:
[1] = tested on: Axl signalling (phosphorylation of Akt on Ser473) in HeLa cells; assay: Gas6-induced Axl downstream signalling, phospho-Akt (Ser473) Western blot; type: cell-based, human; settings: pre-incubation 1 μg/mL 1 hr, then mouse Gas6 10 μg/mL 20 min
Description: The experiments were performed using human cervical cancer derived cell line HeLa (ATCC® CCL-2™). The cells were grown in T175 flasks to 80% confluency in MEM culture medium (Sigma) supplemented with 10% FBS, penicillin-streptomycin and L-glutamine. The cells were washed with PBS and detached by treatment with 0.25% Trypsin/EDTA (Sigma) followed by centrifugation and resuspension in fresh medium (MEM/0.5% FBS). The cells were seeded in Petri dishes (3×10^6 cells per dish) in MEM medium supplemented with 10% FBS. After three hrs incubation at 37° C., the cells were washed with PBS and kept in starvation medium (MEM/0.5% FBS) overnight. The cells were pre-incubated with anti-Axl antibody 10G5 at concentration 1 μg/mL for 1 hr followed by stimulation with Axl ligand, recombinant mouse Gas6 (R&D Systems), at concentration 10 μg/mL for 20 min. […] Detection with anti-GAPDH antibody (Millipore) was used as loading control.

[2] = biological target: T1, human Axl (rhAxl-Fc chimera) (Homo sapiens, UniProt P30530); assay: Biacore binding analysis on immobilised human Axl; settings: 10 μg/mL in HBS-EP, 25° C.
T1 construct: Soluble recombinant antigens corresponding to the extracellular domains of members of the human TAM receptor family; Fc; purchased R&D Systems 154-AL
Description: (§1) All binding experiments were performed using Biacore 3000 instrument (GE Healthcare) at 25° C. Soluble recombinant antigens corresponding to the extracellular domains of members of the human TAM receptor family, Axl (rhAxl-Fc chimera; R&D Systems, Cat. no. 154-AL), Mer (rhMer-Fc chimera; R&D Systems, Cat. no. 891-MR) and Tyro3 (rhTyro3/Dtk-Fc chimera; R&D Systems, Cat. no. 859-DK) were immobilized on the surface of CM5 sensor chip using amine coupling at the surface density of 393.0, 303.6 and 364.0 resonance units (RU), respectively. The Biacore run was performed in an automatic mode using Binding analysis wizard. Samples containing MAb 10G5 at concentration 10 μg/mL in HBS-EP buffer (GE Healthcare) were injected over the surfaces with immobilized antigens at flow rate of 30 μL/min for 3 min (association) followed by 5 min dissociation.
(§2) The binding experiments were performed using Biacore 3000 instrument (GE Healthcare) at 25° C. The soluble recombinant antigens corresponding to human Axl (rhAxl-Fc chimera; R&D Systems, Cat. no. 154-AL), mouse Axl (rmAxl-Fc chimera; R&D Systems, R&D Systems; Cat. no. 854-AX) and human Tyro3 (rhTyro3/Dtk-Fc chimera; R&D Systems, Cat. no. 859-DK) were immobilized on the surface of CM5 sensor chip using amine coupling at the surface density of 1,308.0, 2,115.9 and 1,429.0 RU, respectively. The Biacore runs were performed in an automatic mode using Binding analysis wizard.
(§3) The sample containing MAb 10G5 or recombinant mouse (rm) Axl-ligand Gas6 (R&D Systems, Cat. no. 986-GS/CF) at concentration 10 μg/mL in HBS-EP buffer (GE Healthcare) was injected over the surfaces with immobilized antigens at flow rate of 30 μL/min for 3 min (association) followed by 5 min dissociation.
The sequence of Axl receptor from cynomolgus monkey (Macaca fascicularis; SEQ ID NO: 27) was retrieved from WO2009062690A1. Based on the sequence, recombinant extracellular domain of cyno-Axl was generated by transient expression in CHO cells as a fusion protein with human Fc. The recombinant cyno-Axl-Fc was purified to homogeneity using Protein A-Sepharose (GE Healthcare). The binding experiments were performed using Biacore 3000 instrument (GE Healthcare) at 25° C. The soluble recombinant antigens corresponding to human Axl (rhAxl-Fc chimera; R&D Systems, Cat. no. 154-AL) and cyno-Axl were immobilized on the surface of CM5 sensor chip using amine coupling at the surface density of 775 and 880 RU, respectively. The Biacore runs were performed in an automatic mode using Binding analysis wizard.
The sample containing MAb 10G5 or human Axl-specific MAb 5F11 (control) at concentration 10 μg/mL in HBS-EP buffer (GE Healthcare) was injected over the surfaces with immobilized antigens at flow rate of 30 μL/min for 3 min (association) followed by 5 min dissociation. […]

[3] = biological target: T2, Tyro3 (rhTyro3/Dtk-Fc chimera) (Homo sapiens, UniProt Q06418); assay: Biacore binding analysis on immobilised human Tyro3; settings: 10 μg/mL in HBS-EP, 25° C.
T2 construct: Soluble recombinant antigens corresponding to the extracellular domains of members of the human TAM receptor family; Fc; purchased R&D Systems 859-DK
T2 sequence (Q06418 41-429 limits assumed): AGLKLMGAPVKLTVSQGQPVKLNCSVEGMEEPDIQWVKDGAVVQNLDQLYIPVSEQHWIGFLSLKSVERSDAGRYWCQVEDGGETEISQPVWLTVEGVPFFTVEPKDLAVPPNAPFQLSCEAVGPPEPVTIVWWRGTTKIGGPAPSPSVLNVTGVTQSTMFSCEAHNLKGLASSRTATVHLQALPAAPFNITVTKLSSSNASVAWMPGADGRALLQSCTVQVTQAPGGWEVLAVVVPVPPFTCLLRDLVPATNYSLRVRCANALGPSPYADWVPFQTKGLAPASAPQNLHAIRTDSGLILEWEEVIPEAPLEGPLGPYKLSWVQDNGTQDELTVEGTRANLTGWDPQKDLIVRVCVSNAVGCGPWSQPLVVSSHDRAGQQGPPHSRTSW
Description: as §1, §2, §3

A549 tumours = assay: A549 human NSCLC xenograft in mice (Examples 14, 16, 17, 18); type: in vivo, mouse; settings: nude mice, 20 mg/kg i.p. twice weekly, after four weeks of treatment, versus vehicle
Description: SCID mice were implanted subcutaneously (s.c.) into the flank with 5×10^6 A549 cells resuspended in serum-free medium/Matrigel (1:1).

Row | Molecule | Gas6-induced phosphorylation of Akt on Ser473 [1] | Binding to human Axl [2] | Binding to recombinant human Tyro3 [3] | Inhibition of A549 tumour growth (A549 tumours)
1 | B1 | significantly reduces; also recorded: significantly be reduced | bind strongly; also recorded: specific binding; also recorded: strong and specific interaction | no significant binding | –
2 | B2 | – | binds immobilized Axl with profiles very similar to the binding profiles of the corresponding mouse antibody | – | around 40%
